According to US20230038638A1, “COMPLEMENT FACTOR I-RELATED COMPOSITIONS AND METHODS” (published 2023):
Numbering of substitutions follows the chain as printed. Values joined by “and” are separate entries in the source; they are usually repeats but may differ in a detail not shown here. Equal values may be shown once.

Tests used:
human C4b (human) [1] = target: T1, human C4b (human) (UniProt P0C0L4)
T1 sequence: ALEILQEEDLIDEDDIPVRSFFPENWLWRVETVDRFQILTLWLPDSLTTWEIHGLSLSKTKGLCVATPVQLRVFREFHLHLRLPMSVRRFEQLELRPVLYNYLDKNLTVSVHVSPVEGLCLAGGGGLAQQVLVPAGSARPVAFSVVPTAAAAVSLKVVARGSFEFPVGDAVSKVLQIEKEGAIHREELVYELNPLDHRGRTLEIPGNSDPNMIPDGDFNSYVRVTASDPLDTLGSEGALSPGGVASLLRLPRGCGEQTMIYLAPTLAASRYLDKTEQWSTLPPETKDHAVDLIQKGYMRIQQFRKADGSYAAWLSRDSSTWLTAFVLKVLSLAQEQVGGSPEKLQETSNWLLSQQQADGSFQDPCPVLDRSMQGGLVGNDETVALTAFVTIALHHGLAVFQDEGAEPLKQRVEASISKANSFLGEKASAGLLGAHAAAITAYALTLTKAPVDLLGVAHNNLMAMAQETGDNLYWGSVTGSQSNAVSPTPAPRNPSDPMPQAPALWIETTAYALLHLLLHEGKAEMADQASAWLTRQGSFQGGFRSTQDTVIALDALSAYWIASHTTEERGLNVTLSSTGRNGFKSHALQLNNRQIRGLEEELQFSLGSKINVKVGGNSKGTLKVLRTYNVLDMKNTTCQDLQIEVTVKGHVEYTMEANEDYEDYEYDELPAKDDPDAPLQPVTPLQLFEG

[2] = target: soluble human C3b (human) (UniProt P01024)
human C4b (human) [3] = target: T1, human C4b (human); remark: listed apart in the source
human C4b (human) [4] = target: T2, human C4b (human) (UniProt P0C0L5)
T2 sequence: T1 sequence with A151T, D317G, P364L, C365S, L368I, D369H, N420S, V451A, L454R, S530A

Substance	C4c EC50 (nM) (human C4b (human) [1])	iC3b Screen Ref Fold (fold of CFI-HSA wild type) [2]	C4b Screen Ref Fold (fold of CFI-HSA wild type) (human C4b (human) [3])	C4c EC50 (human C4b (human) [1]) [nM]	iC3b Screen Ref Fold (fold of reference) [2]	C4b Screen Ref Fold (fold of reference) (human C4b (human) [3])	also measured
CFI-HSA variant E457G; E461Q; F464Y; E530Y; N531G; P558S (enzyme)	32.4	2.44	4.03				
CFI-HSA variant K14A; Y20F; D26A; R35A; E38A; L304G; P305G; K306G; L307G; S308G (enzyme)	> 1000				0.04	4.19	
CFI-HSA variant Y408F; E416A; E457G; E461Q; R462K; N531G (enzyme)	11.5	1.99	4.51				
CFI-HSA variant N531Q (enzyme)	310				0.69	3.46	
CFI-HSA variant E457G; E461Q; F464Y; N531G; R557K (enzyme)	10.6	2.17	4.54				
CFI-HSA variant Y408L; E457G; E461Q; R462K; E530F; N531G; P558S (enzyme)	148	1.81	3.96				
CFI-HSA variant N531S (enzyme)	176				1.16	2.21	
CFI-HSA variant Y408F; E457G; E461Q; R462K; F464Y; N531G (enzyme)	13.2	1.87	4.57				
CFI-HSA variant E457P (enzyme)	> 1000				0.07	0.01	
CFI-HSA variant Y408F; E457G; E461Q; R462K; N531G (enzyme)	14.4	1.9	4.58				
CFI-HSA variant E457G; E461Q; R462K; F464Y; N531G; R557K (enzyme)	12.4	1.49	4.47				
CFI-HSA variant E416A; E457G; E461Q; F464Y; N531G (enzyme)	12	1.79	4.74				
CFI-HSA variant E457G; E461Q; K504H; N531G (enzyme)	39	1.2	3.91				
CFI-HSA variant E457G; E461Q; R462K; F464Y; E530Y; N531G; P558S (enzyme)	30	2.69	4.51				
CFI-HSA variant E457G; E461Q; E530F; N531G; P558S (enzyme)	17.8	1.37 and 1.5	4.57 and 4.37				
CFI-HSA variant G406D; Y408L; N531G (enzyme)				178	0.93	5.16	
CFI-HSA variant E461T (enzyme)	125				1.53	3.24	
CFI-HSA variant Y408F; E457G; E461Q; N531G (enzyme)	51	1.42	4.63				
CFI-HSA variant T346R; Y408L; N531G (enzyme)				204	0.93	3.42	
CFI-HSA variant G406D; Y408L; N531G; P535A (enzyme)				102	0.96	5.44	
CFI-HSA variant Y408L; D425R; E416A (enzyme)	221	2.26					C4b Screen Ref Fold (fold of CFI-HSA wild type) (human C4b (human) [4]): 0.43
CFI-HSA variant Y408L; E457G; E461Q; R462K; F464Y (enzyme)	163						iC3b Screen Ref Fold (fold vs CFI-HSA wild type) [2]: 0.86; C4b Screen Ref Fold (fold vs CFI-HSA wild type) (human C4b (human) [4]): 5.78
CFI-HSA variant Y408L; N531G; D425R; E416A (enzyme)	60.6	2.15					C4b Screen Ref Fold (fold of CFI-HSA wild type) (human C4b (human) [4]): 1.41
CFI-HSA variant Y408L; N531G; N422K (enzyme)		1.94		83.7			C4b Screen Ref Fold (fold of CFI-HSA wild type) (human C4b (human) [4]): 3.78
CFI-HSA variant Y408L; E457G; P558S (enzyme)		0.97		67.3			C4b Screen Ref Fold (fold of CFI-HSA wild type) (human C4b (human) [4]): 4.59
CFI-HSA variant Y408L; E457G; N531G; P535G; K534Q (enzyme)		1.2		21.1			C4b Screen Ref Fold (fold of CFI-HSA wild type) (human C4b (human) [4]): 4.68
CFI-HSA variant N531G; E457G; E461Q; F464Y (enzyme)	44.1						iC3b Screen Ref Fold (fold vs CFI-HSA wild type) [2]: 0.27; C4b Screen Ref Fold (fold vs CFI-HSA wild type) (human C4b (human) [4]): 6.8

More lines, main results first:

C4c EC50 (nM) (human C4b (human) [1])	iC3b Screen Ref Fold (fold of CFI-HSA wild type) [2]	C4b Screen Ref Fold (fold of CFI-HSA wild type) (human C4b (human) [3])	C4c EC50 (human C4b (human) [1]) [nM]	iC3b Screen Ref Fold (fold of reference) [2]	C4b Screen Ref Fold (fold of reference) (human C4b (human) [3])	Substance	also measured
			129	0.88	5.98	CFI-HSA variant G406D; N531G; P535A (enzyme)	
15.1	1.81	4.43				CFI-HSA variant Y408F; E457G; E461Q; F464Y; N531G (enzyme)	
77.2				1.52	4.91	CFI-HSA variant N531D (enzyme)	
			124	0.83	6.15	CFI-HSA variant G406D; N531G (enzyme)	
27.5	0.84	3.83				CFI-HSA variant Y408L; E457G; E461Q; R462K; K504H; N531G (enzyme)	
17.8	1.63	4.04				CFI-HSA variant Y408L; E416A; E457G; E461Q; R462K; N531G (enzyme)	
183				1.09	1.98	CFI-HSA variant N531F (enzyme)	
	0.97		83.8			CFI-HSA variant Y408L; E457G; K534Q (enzyme)	C4b Screen Ref Fold (fold of CFI-HSA wild type) (human C4b (human) [4]): 5.24
	1.04		65.9			CFI-HSA variant E457G; P558S (enzyme)	C4b Screen Ref Fold (fold of CFI-HSA wild type) (human C4b (human) [4]): 4.98
	1.35		63.2			CFI-HSA variant N531G; P558S (enzyme)	C4b Screen Ref Fold (fold of CFI-HSA wild type) (human C4b (human) [4]): 5.28
170	2.51					CFI-HSA variant Y408L; E457G; E416A (enzyme)	C4b Screen Ref Fold (fold of CFI-HSA wild type) (human C4b (human) [4]): 2.11
	0.66		108			CFI-HSA variant S552G; Y553H; V565I; P558S (enzyme)	C4b Screen Ref Fold (fold of CFI-HSA wild type) (human C4b (human) [4]): 3.5
